Source: PMC5027616, “IL-13Rα2 uses TMEM219 in chitinase 3-like-1-induced signalling and effector responses” (Nature Communications, 2016)

Target: T1, IL-13Rα2-Chi3l1 complexes (labelled) (UniProt Q14627 27-343; P36222 22-383, BODPY-TRM-X-succinimidyl ester label)
T1 construct: IL-13 receptor alpha 2, ectodomain; as m13; chitinase 3-like-1; as m12; The legend calls the complexes labelled; also called IL-13Rα2 complexed with Chi3l1; source: both proteins from the baculovirus-insect cell expression system, purified; complex formed before the titration
T1 sequence (Q14627 27-343, chain 1 of 2): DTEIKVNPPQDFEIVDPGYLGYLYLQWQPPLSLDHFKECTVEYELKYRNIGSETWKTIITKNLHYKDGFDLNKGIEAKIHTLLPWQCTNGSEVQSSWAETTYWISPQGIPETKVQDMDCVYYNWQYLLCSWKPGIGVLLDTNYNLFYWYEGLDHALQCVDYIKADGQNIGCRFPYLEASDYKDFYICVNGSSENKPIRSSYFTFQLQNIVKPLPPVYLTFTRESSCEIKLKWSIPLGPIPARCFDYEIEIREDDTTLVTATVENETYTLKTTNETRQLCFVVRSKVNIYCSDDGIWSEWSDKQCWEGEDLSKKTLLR
T1 sequence (P36222 22-383, chain 2 of 2): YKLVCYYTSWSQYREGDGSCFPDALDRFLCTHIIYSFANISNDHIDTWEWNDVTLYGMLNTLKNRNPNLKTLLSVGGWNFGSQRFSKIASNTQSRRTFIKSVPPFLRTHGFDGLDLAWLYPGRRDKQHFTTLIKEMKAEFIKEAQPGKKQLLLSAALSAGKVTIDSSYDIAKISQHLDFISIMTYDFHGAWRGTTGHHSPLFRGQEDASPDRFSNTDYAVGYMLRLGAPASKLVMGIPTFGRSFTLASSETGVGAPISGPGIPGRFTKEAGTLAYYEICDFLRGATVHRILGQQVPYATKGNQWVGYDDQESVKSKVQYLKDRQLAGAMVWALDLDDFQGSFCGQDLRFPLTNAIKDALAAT
Experiment: fluorescence polarisation; fluorescence anisotropy; serial dilutions of TMEM219 in 13 nm nanodisc (10 nM-10 μM) added to 10 nM labelled protein or complex; PBS for labelling; empty nanodisc as control
Details: both partners purified

B1: His-tagged human TMEM219 (natural protein, UniProt Q86XT9 39-240, looked up)
chain: SFLLTHRTGLRSPDIPQDWVSFLRSFGQLTLCPRNGTVTGKWRGSHVVGLLTTLNFGDGPDRNKTRTFQATVLGSQMGLKGSSAGQLVLITARVTTERTAGTCLYFSAVPGILPSSQPPISCSEEGAGNATLSPRMGEECVSVWSHEGLVLTKLLTSEELALCGSRLLVLGSFLLLFCGLLCCVTAMCFHPRRESHWSRTRL
notes: also called recombinant human (rh) TMEM219; rTMEM219; source: HEK293T cells (pcDNA3.1), purified (Nickel beads)
B1 showed a Kd of roughly 288 nM.
